This is an account of results in paper PMC2121029.

Where two headings read alike, the source gives them in different places.

The target in test [1] is beta-actin from bovine erythrocytes (bovine) (UniProt P60712). Description: kinetic simulation.
For test [2] the target is unchanged. Description: shift of the critical concentration for actin polymerization.
Test [3] shares this target.
In test [4] the target is alpha-actin from chicken skeletal muscle (chicken) (UniProt P68139). Description: actin uncapping assay.
Test [5] has the same target. Description: kinetic simulation.

In test [1], “capping protein of chicken kidney and brain containing the beta2 subunit (CP-beta2) (from UniProt P13127;P28497;P14315-2) (complex)” came in with a koff of 0.00095 s⁻¹ and a kon of 3.9e+06 M⁻¹ s⁻¹. In addition, the Kd in test [2] is 0.08 nM. For the same substance, the koff in test [3] stood at 0.00031 s⁻¹.

“capping protein of chicken skeletal (pectoral) muscle containing the beta1 subunit (CP-beta1) (from UniProt P13127;P28497;P14315-1) (complex)” had a half-life of a capped barbed end with PIP2 in test [4] of 46 s. Besides, the koff in test [5] was 0 s⁻¹.

What is called koff is a measure of how fast the partners let go of each other. What is called kon is a measure of how fast the partners come together. A lower kon goes with slow association. In general, Kd refers to the free concentration of one partner at which half of the binding sites on the other are occupied at equilibrium, for simple one-to-one binding.
